According to patent publication US20250152746A1, “BASE EDITING OF ANGPTL3 AND METHODS OF USING SAME FOR TREATMENT OF DISEASE” (Verve Therapeutics, Inc., priority 2020, published 2025):
In the oligonucleotide strings, read from the 5' end, every base follows the letter of its sugar. An asterisk marks phosphorothioate; unmarked linkages are phosphodiester. Other units and linkages are bracketed, terminal groups are in braces. A string of capitals states the bases alone. m = 2'-O-methyl; r = 2'-OH (RNA)

B1: GA168: PCSK9 gRNA; protospacer CTTGGCGCAGCGGTGGAAGG (SEQ ID NO: 162) (nucleic acid)
guide: CUUGGCGCAGCGGUGGAAGGGUUUUAGAGCUAGAAAUAGCAAGUUAAAAUAAGGCUAGUCCGUUAUCAACUUGAAAAAGUGGCACCGAGUCGGUGCUUUU
modifications: sugars from the 5' end m3 r94 m3, linkages s3 o93 s3 (s phosphorothioate, o phosphodiester), T or U not given here
B2: GA167: PCSK9 gRNA; protospacer TCAGCTCCAGGCGGTCCTGG (SEQ ID NO: 161) (nucleic acid)
guide: UCAGCUCCAGGCGGUCCUGGGUUUUAGAGCUAGAAAUAGCAAGUUAAAAUAAGGCUAGUCCGUUAUCAACUUGAAAAAGUGGCACCGAGUCGGUGCUUUU
modifications: sugars from the 5' end m3 r94 m3, linkages s3 o93 s3 (s phosphorothioate, o phosphodiester), T or U not given here
B3: GA164: PCSK9 gRNA; protospacer GTCCTCGTCCTCCTGCGCAC (SEQ ID NO: 158) (nucleic acid)
guide: GUCCUCGUCCUCCUGCGCACGUUUUAGAGCUAGAAAUAGCAAGUUAAAAUAAGGCUAGUCCGUUAUCAACUUGAAAAAGUGGCACCGAGUCGGUGCUUUU
modifications: sugars from the 5' end m3 r94 m3, linkages s3 o93 s3 (s phosphorothioate, o phosphodiester), T or U not given here
B4: GA246: PCSK9 gRNA; protospacer GCCAGCGCCTGGCGAGGGCT (SEQ ID NO: 239) (nucleic acid)
guide: GCCAGCGCCUGGCGAGGGCUGUUUUAGAGCUAGAAAUAGCAAGUUAAAAUAAGGCUAGUCCGUUAUCAACUUGAAAAAGUGGCACCGAGUCGGUGCUUUU
modifications: sugars from the 5' end m3 r94 m3, linkages s3 o93 s3 (s phosphorothioate, o phosphodiester), T or U not given here
B5: GA245: PCSK9 gRNA; protospacer GTGCTGCTGCCCCTGGCGGG (SEQ ID NO: 238) (nucleic acid)
guide: GUGCUGCUGCCCCUGGCGGGGUUUUAGAGCUAGAAAUAGCAAGUUAAAAUAAGGCUAGUCCGUUAUCAACUUGAAAAAGUGGCACCGAGUCGGUGCUUUU
modifications: sugars from the 5' end m3 r94 m3, linkages s3 o93 s3 (s phosphorothioate, o phosphodiester), T or U not given here
B6: GA247: PCSK9 gRNA; protospacer CCTCGCCAGGCGCTGGCAGG (SEQ ID NO: 240) (nucleic acid)
guide: CCUCGCCAGGCGCUGGCAGGGUUUUAGAGCUAGAAAUAGCAAGUUAAAAUAAGGCUAGUCCGUUAUCAACUUGAAAAAGUGGCACCGAGUCGGUGCUUUU
modifications: sugars from the 5' end m3 r94 m3, linkages s3 o93 s3 (s phosphorothioate, o phosphodiester), T or U not given here
B7: GA171: PCSK9 gRNA; protospacer TCTTGGTGAGGTATCCCCGG (SEQ ID NO: 165) (nucleic acid)
guide: UCTTGGTGAGGTATCCCCGGGTTTTAGAGCTAGAAATAGCAAGTTAAAATAAGGCTAGTCCGTTATCAACTTGAAAAAGTGGCACCGAGTCGGTGCTTTT
modifications: 2'-O-methyl at 1, 2, other sugars, backbone and T or U not given here; further chemistry not fully specified
B8: GA162: PCSK9 gRNA; protospacer GGACGGCGACTACGAGGAGC (SEQ ID NO: 156) (nucleic acid)
guide: mG*mG*mA*rCrGrGrCrGrArCrUrArCrGrArGrGrArGrCrGrUrUrUrUrArGrArGrCrUrArGrArArArUrArGrCrArArGrUrUrArArArArUrArArGrGrCrUrArGrUrCrCrGrUrUrArUrCrArArCrUrUrGrArArArArArGrUrGrGrCrArCrCrGrArGrUrCrGrGrUrGrCrU*mU*mU*mU
B9: GA170: PCSK9 gRNA; protospacer CCAGGACCGCCTGGAGCTGA (SEQ ID NO: 164) (nucleic acid)
guide: CCAGGACCGCCUGGAGCUGAGUUUUAGAGCUAGAAAUAGCAAGUUAAAAUAAGGCUAGUCCGUUAUCAACUUGAAAAAGUGGCACCGAGUCGGUGCUUUU
modifications: sugars from the 5' end m3 r94 m3, linkages s3 o93 s3 (s phosphorothioate, o phosphodiester), T or U not given here
B10: GA165: PCSK9 gRNA; protospacer CCGTCAGCTCCAGGCGGTCC (SEQ ID NO: 159) (nucleic acid)
guide: CCGUCAGCUCCAGGCGGUCCGUUUUAGAGCUAGAAAUAGCAAGUUAAAAUAAGGCUAGUCCGUUAUCAACUUGAAAAAGUGGCACCGAGUCGGUGCUUUU
modifications: sugars from the 5' end m3 r94 m3, linkages s3 o93 s3 (s phosphorothioate, o phosphodiester), T or U not given here
B11: GA166: PCSK9 gRNA; protospacer CGCCCGTGCGCAGGAGGACG (SEQ ID NO: 160) (nucleic acid)
guide: CGCCCGUGCGCAGGAGGACGGUUUUAGAGCUAGAAAUAGCAAGUUAAAAUAAGGCUAGUCCGUUAUCAACUUGAAAAAGUGGCACCGAGUCGGUGCUUUU
modifications: sugars from the 5' end m3 r94 m3, linkages s3 o93 s3 (s phosphorothioate, o phosphodiester), T or U not given here
B12: GA172: PCSK9 gRNA; protospacer CAGTGCGCTCTGACTGCGAG (SEQ ID NO: 166) (nucleic acid)
guide: CAGUGCGCUCUGACUGCGAGGUUUUAGAGCUAGAAAUAGCAAGUUAAAAUAAGGCUAGUCCGUUAUCAACUUGAAAAAGUGGCACCGAGUCGGUGCUUUU
modifications: sugars from the 5' end m3 r94 m3, linkages s3 o93 s3 (s phosphorothioate, o phosphodiester), T or U not given here
B13: GA163: PCSK9 gRNA; protospacer CGTCCTCGTCCTCCTGCGCA (SEQ ID NO: 157) (nucleic acid)
guide: CGUCCUCGUCCUCCUGCGCAGUUUUAGAGCUAGAAAUAGCAAGUUAAAAUAAGGCUAGUCCGUUAUCAACUUGAAAAAGUGGCACCGAGUCGGUGCUUUU
modifications: sugars from the 5' end m3 r94 m3, linkages s3 o93 s3 (s phosphorothioate, o phosphodiester), T or U not given here
B14: GA169: PCSK9 gRNA; protospacer CGTGCGCAGGAGGACGAGGA (SEQ ID NO: 163) (nucleic acid)
guide: CGUGCGCAGGAGGACGAGGAGUUUUAGAGCUAGAAAUAGCAAGUUAAAAUAAGGCUAGUCCGUUAUCAACUUGAAAAAGUGGCACCGAGUCGGUGCUUUU
modifications: sugars from the 5' end m3 r94 m3, linkages s3 o93 s3 (s phosphorothioate, o phosphodiester), T or U not given here

The molecules below were run on PCSK9 gene (assay: PCSK9 gRNA/SpCas9 editing in primary cynomolgus hepatocytes (Tables 2, 22)). Settings: 100 ng/RNA/mL; SpCas9 mRNA MS002 1:1 by weight.
Type: cell-based, cynomolgus monkey

Molecule | Cyno Primary Hepatocyte Editing % 100 [%]
B1 | 4.75
B2 | 11.98
B3 | 2.75
B4 | 1.11
B5 | 0.19
B6 | 0.71
B7 | 1.29
B8 | 1.62
B9 | 4.03
B10 | 5.43
B11 | 3.93
B12 | 0.51
B13 | 5.99
B14 | 3.45

Same assay, conditions: 500 ng/RNA/mL; SpCas9 mRNA MS002 1:1 by weight

Molecule | Cyno Primary Hepatocyte Editing % 500 [%]
B1 | 15.90
B2 | 35.98
B3 | 13.96
B4 | 5.78
B5 | 0.88
B6 | 2.62
B7 | 9.06
B8 | 11.18
B9 | 11.48
B10 | 18.00
B11 | 14.39
B12 | 2.11
B13 | 17.69
B14 | 18.28

Same assay, conditions: 2500 ng/RNA/mL; SpCas9 mRNA MS002 1:1 by weight

Molecule | Cyno Primary Hepatocyte Editing % 2500 [%]
B1 | 41.49
B2 | 66.07
B3 | 34.89
B4 | 24.63
B5 | 7.07
B6 | 11.48
B7 | 27.79
B8 | 28.26
B9 | 23.17
B10 | 35.57
B11 | 44.77
B12 | 15.58
B13 | 49.50
B14 | 42.38

The molecules below were run on PCSK9 gene (assay: PCSK9 gRNA/SpCas9 editing in primary human hepatocytes (Tables 2, 4)). Settings: 100 ng/RNA/mL; SpCas9 mRNA MS002 1:1 by weight.
Type: cell-based
Procedure, shortened: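 Primary human hepatocytes co-transfected with PCSK9 gRNA plus SpCas9 mRNA (1:1 by weight) at 2500, 500 or 100 ng RNA/mL, or 2500–250 ng/mL for tracr-modified guides. Editing at the target site read by amplicon next-generation sequencing of extracted genomic DNA.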

Molecule | Human Primary Hepatocyte Editing % 100 [%]
B2 | 8.2
B3 | 2.68
B4 | 0.08
B5 | 1.68
B6 | 0.25
B7 | 2.37
B8 | 2.14
B9 | 2.9
B10 | 4.99
B11 | 2.89
B12 | 0.32
B13 | 2.31
B14 | 5.49

Same assay, conditions: 500 ng/RNA/mL; SpCas9 mRNA MS002 1:1 by weight

Molecule | Human Primary Hepatocyte Editing % 500 [%]
B1 | 25.77
B2 | 25.87
B3 | 11.12
B4 | 2.17
B5 | 2.97
B6 | 0.17
B7 | 9.38
B8 | 12.97
B9 | 15.84
B10 | 22.3
B11 | 10.99
B12 | 3.52
B13 | 9.2
B14 | 15.15

Same assay, conditions: 2500 ng/RNA/mL; SpCas9 mRNA MS002 1:1 by weight

Molecule | Human Primary Hepatocyte Editing % 2500 [%]
B1 | 54.99
B2 | 53.71
B3 | 25.77
B4 | 17.95
B5 | 2.9
B6 | 6.76
B7 | 31.75
B8 | 42.8
B9 | 31.35
B10 | 40.27
B11 | 36.89
B12 | 14.01
B13 | 29.32
B14 | 46.65
